Target: Superfolder-GFP-tagged M-HBsAg (serotype ayw, genotype D3) (Hepatitis B virus (serotype ayw, …))
Experiment: ELISA

B1: 3× HA-tagged FabHBC (Fab, V domains shown)
VH: ELQLVESGGGWVQPGGSQRLSCAASGRIFRSFYMSWVRQAPGKGLEWVATINQDGSEKLYVDSVKGRFTISRDNAKNSLFLQMNNLRVEDTAVYYCAAWSGNSGGMDVWGQGTTVSVSS
VL: SYELTQPPSVSVSPGQTVSIPCSGDKLGNKNVCWFQHKPGQSPVLVIYEVKYRPSGIPERFSGSNSGNTATLTISGTQAMDEAAYFCQTWDSTTVVFGGGTRLTVL
B1 was tested, and the Kd was 0.103 nM.
